{"source": "patent US20070077578A1", "about": "“Diagnosis of (a risk of ) disease and monitoring of therapy” (PrimaGen Holding B.V., priority 2004, published 2007)", "molecules": {"B1": {"name": "GCSF: mobilizes stem cells from the bone marrow (protein, UniProt P09919 31-207, looked up)", "Granulocyte …": "TPLGPASSLPQSFLLKCLEQVRKIQGDGAALQEKLVSECATYKLCHPEELVLLGHSLGIPWAPLSSCPSQALQLAGCLSQLHSGLFLYQGLLQALEGISPELGPTLDTLQLDVADFATTIWQQMEELGMAPALQPTQGAMPAFASAFQRRAGGVLVASHLQSFLEVSYRVLRHLAQP"}}, "system": "AC133", "assay": "AC133 expression per 10,000 cells (quantified by U1A) in patients treated with GCSF", "assay_type": "in vivo, human", "conditions": "two patients treated with GCSF, compared to volunteers and all the other patients", "procedure": "Isolation of nucleic acids from PBMC and NASBA amplification were performed as described in Example 2 with one modification: U1A was used instead of Beta Actin.\nTwo samples of patients who have been subjected to treatment with GCSF were tested. GCSF mobilizes stem cells from the bone marrow, so it is expected to find more AC133-expressing cells in the blood after a treatment with GCSF. It is clear from FIG. 16 that the AC133 expression in these two patients is much higher compared to volunteers and all the other patients."}
{"molecule": "B1", "values": [{"measurement": "AC133 expression per 10,000 cells", "result": "much higher"}]}
